Reference: patent publication US20180066068A9, “ANTI-PSYK ANTIBODY MOLECULES AND USE OF SAME FOR SYK-TARGETED THERAPY” (Millennium Pharmaceuticals, Inc., priority 2014, published 2018)

Assays:
Assay type in all cases: binding
[1] = target: T1, pSYK in PHTX 95L xenografts (Homo sapiens, UniProt P43405); assay: Quantitative pSYK IHC on PHTX 95L xenografts (Positive Pixel Count)
T1 construct: from tissue; host or cells: FFPE sections of PHTX-95L primary human lymphoma xenografts grown in NOD SCID mice
Procedure: Final selection of antibody was performed by qualitative and quantitative assessment of IHC results of staining pSYK in PHTX 95L xenografts from untreated or SYK inhibitor-treated mice described above using the Ventana Discovery XT autostainer and the same staining protocols as previous assays (see FIG. 2).
Quantitative analysis was performed with Aperio Spectrum analysis following Postitive Pixel Count v9 Algorithm at 20× magnification. The Positive pixel analysis was used rather than a signal-to-noise ratio because of program difficulties defining true cytoplasmic staining from background for positive amounts below 5%. The table below has the results of the quantitive analysis.

[2] = target: T2, pSYK in HBL1 and Ly10 xenografts (Homo sapiens, UniProt P43405); assay: IHC on medium- and low-expressing xenografts
T2 construct: from tissue; host or cells: FFPE HBL1 and OCI-LY10 xenografts in SCID mice
Procedure: An IHC assay using the MIL81-1-8 antibody was developed to evaluate pSYK expression in HBL1 xenograft tissue and several primary human tissue xenografts (PHTX-95L, OCI LY10) derived from diffuse large B-cell lymphoma (DLBCL) patient samples in female SCID mice. pSYK protein levels in Formalin-Fixed, Paraffin-Embedded (FFPE) tissues were assessed on […] thick sections and incubated with MIL81-1-8 antibody ([…]) for 1 hour on the Ventana Medical Systems (Tucson, Ariz.) Discovery XT automated stainer. Antibodies were incubated with OmniMap goat anti-rabbit HRP secondary antibody (Ventana Medical Systems) for 16 minutes and developed with the 3,3′-diaminobexidine (DAB) substrate map system. Slides were counterstained with hematoxylin and imaged using the Aperio whole slide scanning system (XT).
Similar results were obtained with the MIL81-1-8 subclone using an automated protocol on a Leica automated stainer. pSYK protein levels in Formalin-Fixed, Paraffin-Embedded tissues were incubated with MIL81-1-8 antibody ([…]) for 30 minutes on the Leica Microsystems (Wetzlar, Germany) BOND RX automated stainer. Antibodies were incubated with a rabbit anti-goat HRP secondary antibody (Leica Laboratories) and developed with the 3,3′-diaminobexidine (DAB) substrate map system. Slides were counterstained with hematoxylin and imaged using the Aperio whole slide scanning system (XT). […]

[3] = target: T3, pSYK in PHTX95L xenograft (Homo sapiens, UniProt P43405); assay: IHC on Leica BOND RX, PHTX95L xenograft background; conditions: MIL81-1-8 at 1:3200, 2175 at 1:25
T3 construct: from tissue; host or cells: FFPE sections of PHTX-95L primary human lymphoma xenografts grown in NOD SCID mice
Procedure: Similar results were obtained with the MIL81-1-8 subclone using an automated protocol on a Leica automated stainer. pSYK protein levels in Formalin-Fixed, Paraffin-Embedded tissues were incubated with MIL81-1-8 antibody ([…]) for 30 minutes on the Leica Microsystems (Wetzlar, Germany) BOND RX automated stainer. Antibodies were incubated with a rabbit anti-goat HRP secondary antibody (Leica Laboratories) and developed with the 3,3′-diaminobexidine (DAB) substrate map system. Slides were counterstained with hematoxylin and imaged using the Aperio whole slide scanning system (XT). MIL81-1-8 antibody was compared to commercial pSYK antibody Epitomics pSYK Catalog No. 2175-1 (Y525/526) for staining specificity. […] A detectable trend toward reduction of pSYK staining also was seen by the anti-pSYK MIL81-1-8 antibody in medium- and low-expressing xenograft samples from mice treated with a SYK inhibitor (FIGS. 5 to 7).

[4] = target: T4, pSYK Y525/6 in DLBCL tissue biopsies (Homo sapiens, UniProt P43405); assay: IHC on recently biopsied DLBCL tissues
T4 construct: from tissue; host or cells: FFPE human DLBCL biopsies; one normal lymph node

[5] = target: T5, pSYK in pervanadate-treated WSU-DLCL cells, PHTX-95L xenograft, DLBCL TMA core, normal spleen (Homo sapiens, UniProt P43405); assay: Validation of MIL81-1-8 IHC specificity
T5 construct: from tissue; host or cells: pellet of pervanadate-treated WSU-DLCL cells; PHTX-95L xenograft; DLBCL tissue microarray core; normal spleen
Procedure: Validation of the specificity MIL81-1-8 on lymphoma cells used a pellet of pervanadate-treated WSU-DLCL cells, PHTX-95L xenograft or a TMA core of a DLBCL tumor. When peptide immunogen was added to the antibody prior to incubation with the tissue, the pSYK IHC staining was blocked (FIG. 9). Another validation of the specificity of MIL81-1-8 staining used phosphatase treatment of the slides prior to antibody incubation. […] Due to this nuclear staining of phosphatase-treated samples, staining of only nuclei in samples was generally judged to be off-target and thus pSYK-negative.

ratio of Percent Positive Pixel per total Pixel, PHTX 95L Untreated ([1]; 20× magnification, Positive Pixel Count v9): 25.19% | ratio of Percent Positive Pixel per total Pixel, PHTX95L SYK Inhibitor ([1]; mice treated with SYK inhibitor (Compound A), 20× magnification): 11.30% | IHC performance compared with Epitomics 2175-1 ([1]; stains of PHTX-95L xenografts, intensity and signal to noise ratio, listed as MIL81-1-8): performing best and best | Detection of pSYK / distinction of untreated and Syk-inhibitor treated tumors [2]: able to specifically detect | IHC background [3]: minimal background | Staining in recently biopsied DLBCL tissues versus Epitomics 2175-1 [4]: much stronger and cleaner | pSYK IHC staining after phosphatase treatment of slides ([5]; except nuclear staining of normal spleen): eliminated epitopes | pSYK IHC staining after adding peptide immunogen to the antibody ([5]; peptide blocking): blocked
B1: Subclone 1-8: rabbit monoclonal anti-pSYK Y525/526 antibody from hybridoma subclone of multiclone 81-1 (antibody)
heavy: QSVEESGGRLVTPGTPLTLTCTVSGIDLNSYIMSWVRQAPGKGLEWIGIISRRGNTYYASWPKGRFTISKTSTTVDLKITSPTTEDTATYFCARAYLYTSGTMSVWGPGTLVTVSSGQPKAPSVFPLAPCCGDTPSSTVTLGCLVKGYLPEPVTVTWNSGTLTNGVRTFPSVRQSSGLYSLSSVVSVTSSSQPVTCNVAHPATNTKVDKTVAPSTCSKPTCPPPELLGGPSVFIFPPKPKDTLMISRTPEVTCVVVDVSQDDPEVQFTWYINNEQVRTARPPLREQQFNSTIRVVSTLPIAHQDWLRGKEFKCKVHNKALPAPIEKTISKARGQPLEPKVYTMGPPREELSSRSVSLTCMINGFYPSDISVEWEKNGKAEDNYKTTPAVLDSDGSYFLYSKLSVPTSEWQRGDVFTCSVMHEALHNHYTQKSISRSPGK
light: ADIVMTQTPSPVEAAVGGTVTIKCQASESISSYLSWYQQKPGQPPKLLIYRASTLVSGVPSRFKGSGSGTDFTLTISDLECADAATYYCQHTYFGSDYVGGFGGGTEVVVKGDPVAPTVLIFPPAADQVATGTVTIVCVANKYFPDVTVTWEVDGTTQTTGIENSKTPQNSADCTYNLSSTLTLTSTQYNSHKEYTCKVTQGTTSVVQSFNRGDC
